Experimental data from the supplement of paper PMC9112550, “Optimization of the antimicrobial peptide Bac7 by deep mutational scanning” (BMC Biology, 2022).
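Further: peptides expressed intracellularly from a pBAD plasmid library in pooled LB shake-flask culture, induced with 0.3% L-arabinose, DNA abundance read by NGS, three biological replicates, DESeq2 with apeglm shrinkage.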

What follows are sequences tested on Escherichia coli TOP10 (assay: shrunken log2 fold change of peptide-encoding DNA abundance (4.5 h post-induction vs induction); higher = less antimicrobial activity (less host growth inhibition)). Conditions: time post-induction: 4.5 h; library: site-saturation at positions 5, 18, 19, 20.
With RRIRNRPPRLPRPRPRPCKPPRP the “shrunken log2 fold change” value was -0.0414.
In the case of RRIRGRPPRLPRPRPRPVYLPRP, the “shrunken log2 fold change” value is reported as -0.33.
In the case of RRIRARPPRLPRPRPRPPSKPRP, the “shrunken log2 fold change” value is reported as 0.491.
For RRIRRRPPRLPRPRPRPMVMPRP, the “shrunken log2 fold change” value was 0.158.
With RRIRDRPPRLPRPRPRPKASPRP the “shrunken log2 fold change” value was 0.224.
For RRIRWRPPRLPRPRPRPPLSPRP, the “shrunken log2 fold change” value was 0.271.
RRIRCRPPRLPRPRPRPLEAPRP was tested, and the “shrunken log2 fold change” value was 0.203.
In the case of RRIRPRPPRLPRPRPRPGVGPRP, the “shrunken log2 fold change” value is reported as 0.53.
RRIRLRPPRLPRPRPRPHMMPRP was tested, and the “shrunken log2 fold change” value was -0.135.
With RRIRIRPPRLPRPRPRPPTRPRP the “shrunken log2 fold change” value was 0.251.
For RRIRRRPPRLPRPRPRPADDPRP, the “shrunken log2 fold change” value was 0.213.
In the case of RRIRIRPPRLPRPRPRPWSRPRP, the “shrunken log2 fold change” value is reported as -0.187.
RRIRFRPPRLPRPRPRPHFYPRP was tested, and the “shrunken log2 fold change” value was -0.38.
RRIRFRPPRLPRPRPRPHWNPRP was tested, and the “shrunken log2 fold change” value was -0.653.
In the case of RRIRRRPPRLPRPRPRPCDVPRP, the “shrunken log2 fold change” value is reported as -0.0838.
In the case of RRIRCRPPRLPRPRPRPAVYPRP, the “shrunken log2 fold change” value is reported as 0.0903.
For RRIRLRPPRLPRPRPRPLKQPRP, the “shrunken log2 fold change” value was -0.0926.
RRIRERPPRLPRPRPRPSVCPRP was tested, and the “shrunken log2 fold change” value was -0.0246.
RRIRIRPPRLPRPRPRPCMPPRP was tested, and the “shrunken log2 fold change” value was -0.908.
For RRIRDRPPRLPRPRPRPDGTPRP, the “shrunken log2 fold change” value was 0.184.
With RRIRWRPPRLPRPRPRPNMAPRP the “shrunken log2 fold change” value was 0.345.
RRIRIRPPRLPRPRPRPYEAPRP was tested, and the “shrunken log2 fold change” value was -0.18.
For RRIRHRPPRLPRPRPRPTSKPRP, the “shrunken log2 fold change” value was -0.125.
RRIRNRPPRLPRPRPRPTESPRP was tested, and the “shrunken log2 fold change” value was -0.0455.
For RRIRDRPPRLPRPRPRPMKPPRP, the “shrunken log2 fold change” value was 0.0123.
With RRIRERPPRLPRPRPRPRGYPRP the “shrunken log2 fold change” value was -0.1.
For RRIRNRPPRLPRPRPRPHKEPRP, the “shrunken log2 fold change” value was 0.0155.
RRIRRRPPRLPRPRPRPPRKPRP was tested, and the “shrunken log2 fold change” value was 1.5.
With RRIRIRPPRLPRPRPRPVARPRP the “shrunken log2 fold change” value was 0.223.
With RRIRNRPPRLPRPRPRPTMQPRP the “shrunken log2 fold change” value was 0.0135.
In the case of RRIRARPPRLPRPRPRPGRTPRP, the “shrunken log2 fold change” value is reported as 0.683.
With RRIRSRPPRLPRPRPRPSNGPRP the “shrunken log2 fold change” value was -0.0205.
For RRIRFRPPRLPRPRPRPLAPPRP, the “shrunken log2 fold change” value was 0.193.
RRIRKRPPRLPRPRPRPGDLPRP was tested, and the “shrunken log2 fold change” value was 0.273.
RRIRPRPPRLPRPRPRPYLLPRP was tested, and the “shrunken log2 fold change” value was -1.57.
RRIRQRPPRLPRPRPRPLEEPRP was tested, and the “shrunken log2 fold change” value was 0.275.
With RRIRARPPRLPRPRPRPLQSPRP the “shrunken log2 fold change” value was 0.625.
With RRIRMRPPRLPRPRPRPKHQPRP the “shrunken log2 fold change” value was 0.634.
In the case of RRIRYRPPRLPRPRPRPVLDPRP, the “shrunken log2 fold change” value is reported as -0.265.
In the case of RRIRPRPPRLPRPRPRPRWQPRP, the “shrunken log2 fold change” value is reported as 0.754.
RRIRARPPRLPRPRPRPSFNPRP was tested, and the “shrunken log2 fold change” value was -0.268.
For RRIRGRPPRLPRPRPRPKDGPRP, the “shrunken log2 fold change” value was 0.798.
For RRIRDRPPRLPRPRPRPKNTPRP, the “shrunken log2 fold change” value was -0.226.
For RRIRFRPPRLPRPRPRPFPCPRP, the “shrunken log2 fold change” value was -0.151.
In the case of RRIRRRPPRLPRPRPRPFKIPRP, the “shrunken log2 fold change” value is reported as -0.00337.
RRIRQRPPRLPRPRPRPMRDPRP was tested, and the “shrunken log2 fold change” value was 0.0311.
RRIRPRPPRLPRPRPRPQKMPRP was tested, and the “shrunken log2 fold change” value was -0.201.
For RRIRDRPPRLPRPRPRPPHHPRP, the “shrunken log2 fold change” value was -0.0964.
In the case of RRIRHRPPRLPRPRPRPAEGPRP, the “shrunken log2 fold change” value is reported as -0.00235.
In the case of RRIRMRPPRLPRPRPRPTIKPRP, the “shrunken log2 fold change” value is reported as 0.0703.
In the case of RRIRQRPPRLPRPRPRPGPFPRP, the “shrunken log2 fold change” value is reported as 0.0672.
For RRIRFRPPRLPRPRPRPMVKPRP, the “shrunken log2 fold change” value was -0.219.
In the case of RRIRCRPPRLPRPRPRPLTAPRP, the “shrunken log2 fold change” value is reported as -0.119.
In the case of RRIRFRPPRLPRPRPRPSSMPRP, the “shrunken log2 fold change” value is reported as -0.965.
RRIRTRPPRLPRPRPRPPEWPRP was tested, and the “shrunken log2 fold change” value was 0.442.
For RRIRIRPPRLPRPRPRPVCKPRP, the “shrunken log2 fold change” value was -0.21.
With RRIRGRPPRLPRPRPRPKYFPRP the “shrunken log2 fold change” value was -0.251.
For RRIRERPPRLPRPRPRPWLMPRP, the “shrunken log2 fold change” value was -0.282.
In the case of RRIRQRPPRLPRPRPRPRCSPRP, the “shrunken log2 fold change” value is reported as -0.232.
For RRIRSRPPRLPRPRPRPNQVPRP, the “shrunken log2 fold change” value was -0.0256.
For RRIRIRPPRLPRPRPRPWCDPRP, the “shrunken log2 fold change” value was -0.769.
In the case of RRIRQRPPRLPRPRPRPLDIPRP, the “shrunken log2 fold change” value is reported as -0.163.
With RRIRARPPRLPRPRPRPHTRPRP the “shrunken log2 fold change” value was 0.0581.
In the case of RRIRDRPPRLPRPRPRPDAKPRP, the “shrunken log2 fold change” value is reported as 0.162.
For RRIRKRPPRLPRPRPRPYVLPRP, the “shrunken log2 fold change” value was -0.234.
With RRIRQRPPRLPRPRPRPKFYPRP the “shrunken log2 fold change” value was -0.206.
With RRIRMRPPRLPRPRPRPFHRPRP the “shrunken log2 fold change” value was -0.114.
In the case of RRIRMRPPRLPRPRPRPLPDPRP, the “shrunken log2 fold change” value is reported as 2.49.
RRIRMRPPRLPRPRPRPWEAPRP was tested, and the “shrunken log2 fold change” value was -0.033.
RRIRERPPRLPRPRPRPQCHPRP was tested, and the “shrunken log2 fold change” value was -0.449.
In the case of RRIRKRPPRLPRPRPRPHDHPRP, the “shrunken log2 fold change” value is reported as -0.162.
RRIRARPPRLPRPRPRPSIQPRP was tested, and the “shrunken log2 fold change” value was -0.119.
With RRIRKRPPRLPRPRPRPDYNPRP the “shrunken log2 fold change” value was -0.0745.
In the case of RRIRVRPPRLPRPRPRPWVTPRP, the “shrunken log2 fold change” value is reported as -0.375.
In the case of RRIRRRPPRLPRPRPRPEPYPRP, the “shrunken log2 fold change” value is reported as 0.0302.
In the case of RRIRKRPPRLPRPRPRPIADPRP, the “shrunken log2 fold change” value is reported as -0.125.
With RRIRTRPPRLPRPRPRPETAPRP the “shrunken log2 fold change” value was 0.4.
In the case of RRIRTRPPRLPRPRPRPTDFPRP, the “shrunken log2 fold change” value is reported as -0.405.
RRIRKRPPRLPRPRPRPTGCPRP was tested, and the “shrunken log2 fold change” value was 0.0439.
RRIRRRPPRLPRPRPRPWFCPRP was tested, and the “shrunken log2 fold change” value was -0.101.
For RRIRRRPPRLPRPRPRPARKPRP, the “shrunken log2 fold change” value was 0.58.
With RRIRQRPPRLPRPRPRPHTEPRP the “shrunken log2 fold change” value was 0.0633.
RRIRPRPPRLPRPRPRPQWSPRP was tested, and the “shrunken log2 fold change” value was -0.226.
RRIRPRPPRLPRPRPRPTAYPRP was tested, and the “shrunken log2 fold change” value was -0.203.
With RRIRYRPPRLPRPRPRPKVAPRP the “shrunken log2 fold change” value was -0.013.
With RRIRYRPPRLPRPRPRPRFNPRP the “shrunken log2 fold change” value was -0.808.
RRIRGRPPRLPRPRPRPLPYPRP was tested, and the “shrunken log2 fold change” value was -0.086.
RRIRERPPRLPRPRPRPIQCPRP was tested, and the “shrunken log2 fold change” value was 0.0885.
For RRIRPRPPRLPRPRPRPCWCPRP, the “shrunken log2 fold change” value was -0.0719.
RRIRIRPPRLPRPRPRPLEPPRP was tested, and the “shrunken log2 fold change” value was 0.111.
For RRIRGRPPRLPRPRPRPMCRPRP, the “shrunken log2 fold change” value was 0.393.
